The values that follow come from a protein production outcome set (Wang et al. 2014).

The series in a line: label from the status in PepcDB records.
Consider “MLDLNEFLTRKMKIDVLLKEHGWDVGDRSKVVLEVDTIQSDIKKQDYRQVNETRRNDAESKYADYLLLDSTGKPLAIIEAKRTTKDPILGQKQAEEYADDIKTQTGEEVFIFLSNGYQIWLWDRERYGPRQIKGFYSPEDLERLLYQRKYSERETEIDIDGNIVDRAKSVEVATRVVEHIHKGHRKALIVMATGTGKTRVAMAIIDQLMRESRVQRVLFLTDRKALRKQAYEKGYLRYFPEETKEIIHSGNYNSNCRLYVSTIQTFQEIYNQKDRNGKYRISPGAFDLIFSDEAHRSIYSKWKGIFTYLDAIQIGLTATPADMVDRDTFRFFECHDDIPTALYSYEDAVRDGVLCDFRKNISGARTYFQIEGLKPENLTEGEREELIKKGIDPDDINFEGTELEKKVAVKGTSEAIVREFMENCLTDQAGTLPAKTIFFAISKLHAKRLWEAFEKLYPEHKGKLARIIVSEDSRAQQLIKDFEEKPFPRIAISVDMMDTGIDVPEVCNLVFAKPVFSKIKFWQMLGRGTRADGACEHREWLPDGKKEYFKVFDFWNNFEYWNMNPEGAKNESAEAITNRIFLTRLKQLGELMQRRDPASEKAAEKVKAKIISDIESLPRDSVNVREHLQDMEKALSPKLWDNIAIDPVEFLQKKIMPLMKFKPDVNLKEATFTLRCEKLAYALLENDKAEIDRLKTSIAEMVDRLPRTLDSVRAREALMDNVLSRSFWETVSFEDVQLLLSDLAPLMPYMAKEPRETIVIDMSDIIAERKKWEISDGNDPSYVEAYRREVEARIKALAETHPAVRKIKNNEPLTDYDLEQLEETLLNADLTPDNPKLSSHASLSDLYPSRQASLVDFIRQVLGLYSSPSPDALIKDAFQTYIIGNNKHYSSDQLNFILTLQTVFLKKKHIEYSTLWLPPFTNFGTTAPFPMFTQEELNSFIDICKGVEKDIFM”, for which the protein production entry is recorded as “not failed”.
With “MLDLVNQLELDSQMKQFKLVSQMTRQDVIILDEPGYLPFSQKRGALLFHLMSQLHENTSVIITTNLEFSEWGTLFTEAKMTNALLDRLIHHCHMLETGNESYRFKHRNLEHHHHHH” the entry was “failed”.
As to “MLDNRPIGVFDSGIGGLTIVKNLMSILPNEDIIYFGDIARIPYGTKSRATIQKFAAQTAKFLIDQEVKAIIIACNTISAIAKDIVQEIAKAIPVIDVITAGVSLVDNLNTVGVIATPATINSNAYALQIHKKNPNIEVYSNPCGLFVSMIEEGFVSGHIVELVAKEYLSYFHDKNIQALILGCTHYPIIKESIAKILDVKLIDPSLQASKMLYSLLFENKLLNTTKSNPEYRFYVTDIPLKFRSVGEMFLQTEMQHLEIVSLDSY”, the protein production result was “not failed”.
Take “MLDPATRTPPSLPDFIIGGAMKSATSSLHHLLSNHEQVYLPDGETHFFCMDDPVQHSGFFFPARAPSQRAPDYDRHGETNLDWYRQLFEPAHPDQCVGDYSSTYLPAPDAPLRIKRLLPDVKLLFMLRNPVDRTYSHYWHRVKTGRAVHGFEYELQHGPSTLLLRSFYKPQLERYFDFFPEDQVKVILFERFVDHTQAVVDEVCSFLGLETAVDVAGVDAHQNRSPVPRWPGLQLLLNYCTTGIETRSEGQLPYPAQPQSSYALQGLVHHLRQLNLTPRRPPPMNDSVRACLEQIFARKNQDLGTLLGVDLTSYWPFLRKQHDEPAETAA”: the protein production result was “failed”.
For “MLDQKPKVSVIIPTYNRAHLIPRAIKSVLNQTYLDIEIIIVDDSSTDNTEEIVKDFKDRRLKYIRHNINKGASAARNTGIRESRGKYIAFQDSDDEWFSNKLEKQIEAFADAPPEVGIVYSGFYRIEANRKLYLPSDQLSLKEGNIHNELLKGNFVGTPTVLMKKECFRNQRYFNESLPALEDWELWIELSKYYTFRYIKKPLLCSYSTPNSINLNENNMLKAHEIILLTHLDDFSKNKKNLSEHYYDIGTGLCSIGNFNNGKNYLIKSLKAYCLNFKTISVLFILLFGHNIYYKFRDLHRKIGHRT” the value was “failed”; for “MLDRVIYSLIQTENKSVVNELFFRIAEGEDSFAELARKYSQGAEADRGGIIGPVELGSITPNFAQLLYTSQVGVVQPPVAFGNTWVIVRVEKLIPAQLEHHHHHH”, “failed”.
With “MLEAEVVALKDLIEVAGAVVSTLDLDTVLRHILTSAMRFAETPAGSIALYDGYRNDLTLHAHEGLTPEFVKTERWSVQPGGLTEQVLTRGEILFVNDTADTSFFHNPTALNEGIRSLICVPLMMQNRIVGILYLDDFVPRDFDKERMKLLSVLASFAAMAIDNAQLHARTRLMAITDSLTGLYNHRYFQQIFSRELNRAKRYEKPLAIIMLDVDDFKRFNDTYGHPHGDKVLAAMGDFLGEALRSSDFAFRYGGEEFIVLLPETEFDSALQVAERLRELVERRSLDVLKGLAPQGVTVSVGVASFPRDGESRGDMLKRVDDLLYRAKEFGKNRVYSRREDEP” the entry was “failed”; with “MLEDHHLYKAAIEHSPIGIGLCAPKGRFLDVNRALCALTGHEAQALRARDLFDLCHPDYAARTRERVEALLAGEQDALSLETRFVRPDGSTVWVQADLALARAEAGDGQDGHLIVQVQDVTARRLALESLQASEQRLAYVLDGAGLGTFDWSMRVRHVSFNRRTAEMLGYAHDELSTDPQDWFAMVHPQDAVLSVRRIYRHLRGDADSFEVEQRLRNQEGQWVWMSARGRVTQRDALGIAVRVSGTLQDVTRRRAMLDQAHHLALHDPLTDLPNARLLRDRLFVAIQAARRAGSLVAVVFVDLDRFKPVNDEYGHGVGDLVLKATAMRLRSGLRASDTVARLGGDEFVAVLTHCQTRDDVEQTVERLIEQLQAPFRVEGHVLSMGVSAGVALYPSDGRDAQTLIRCADAAMYEVKRAGGNDFGFHASLNYERLMSMRQRGPDPDGGADGR”, “failed”.
With “MLEGAKFNVLAVGNHHNNDNNYYAFTQEFYQKLNEGSNMSMESMQTSNAGGSVSMSVDNSSVGSSDALIGHPGLKPVRHYSLSVGQSVFRPGRVTHALNDDALAQALMDTRYPTEGLTNYDEWTIDLRKLNMGPAFAQGAFGKLYKGTYNGEDVAIKILERPENSPEKAQFMEQQFQQEVSMLANLKHPNIVRFIGACRKPMVWCIVTEYAKGGSVRQFLTRRQNRAVPLKLAVKQALDVARGMAYVHGRNFIHRDLKSDNLLISADKSIKIADFGVARIEVQTEGMTPETGTYRWMAPEMIQHRAYNQKVDVYSFGIVLWELITGLLPFQNMTAVQAAFAVVNRGVRPTVPNDCLPVLSDIMTRCWDANPEVRPCFVEVVKLLEAAETEIMTTARKARFRCCLSQPMTID” the entry was “failed”; with “MLEHAAGQPWIYPVLLVFFFIDGFATILPSETAIVGLSALSLHSGEPNLWILGGTALVGAMAGDNMAYMLGRKIGLTRWKWMRRPKVQKMFAWAQYELDKRGAVLIFTARYIPWGRVAVNYVAGQTGFRHRTFFWLDAFACITWVGYSIGIGLLAGQWVHHNPLLGVGIAVAFAVVLGIVVDHALRWWHKYLEKKDVAREAAASSEVKVAEPADLSQKAVAGADLSKPAG”, “failed”.
Turning to “MLEILMSLTAAICWAFNGIAYRKGVKDVSAFTANFHRTLFATVYFLPLALRDFPGVVIDLQTALVLVISAMLSFYIGDLSYFASLKRSPVSIALPASSTYPVYVVLLSTVIYGAELSLNALISAILVFVAVYIIYGSGEKGETSGLFYALLAAFSWALAILTLDFLTDRLPVSIVAFVRLLLCLILLSFTAKKDELSTEIRLFFRSVRGIFLLLGIMLFITAIKVSSSWNVVQPSSTSPVFAAIFGAIFLKERISFRLVAGIFVIILAILLLLLPPLQ”, the protein production result is “failed”.
For “MLEIVAAIFIVLLGSGICSCAEAALFSVPLVKVRQLSQSNNPSAIALQAIRHRMNRPIGTIVVLNNIFNIVGSITIGALATKHLQDAWMGVFSGILTLLIIVFGEIIPKTLGERYATNIALLIAIPVRFLTLIFTPLVWLIEQITNPFTHGKRVPSTNEAEIKFLATLGYKEGVIEGDEEQMIQRVFQLNDLMAVDLMTPRVIITYLLGELTLAECQQDIIQSQHTRILIVDEYIDEVLGIALKQDLLTALIQGEGYKTIAELARPAQFVPEGMRADKLLKQFQEKREHLMVVIDEYGGVAGVITLEDVVEVLTGEIVDETDKNIDLQEIARKKRQALLKQRGVAP” the value was “failed”; for “MLEKIFNSLCSLVPKRYNMKEETNIVGIYNEHYLLSEKSNLVGALKLEGISYLSLDDKEIAQKFNERILALNEIVDGVHFKIVVKRRKIFMHHEYTQEEISNPFALEVINLWEQGVEDVYQNFYYLIFETKNDSIKGYLERFKKKITTNELENIQENNRQDEVKYQENYFIGFDNFNLLDKSKILYSIINNVKNMLSGLFVEKIDANSLLNFYAEYINGVPSEYTFARGRLHDGMINSDVHFKKDFFTHIHNGKEIFKRFISIKTYDIDKIVSTALSSVLHLSLEFDVILNIDNIPKAKAEKRIETKRKRANKSIRVEIDELNDMIKTDRVLMQEISLNILVHAKTKTDLDSACIEITNLLKQKGIVSTQESIGMLPMFFSFFPNRNRLNFRKRLLSSQNIASLIILEKQNCGFSRNSWGDRHLTIFRNQDKSPYLFNFHAYEAKRKNDMVSGHTIIFGGTGAGKTTLIEFLITNCFKYEDLSILALDRNNGMRVMTEFLDGQYNDSNDFYINPFSLKDTSANCTFLVSWLAFMLNIDEDTKDEKEKKTLSALSKTIRVCYNNITKQGGAIFKLRDFKDTLEIDYLDSKDILEKESSKDLYKHSTDCLDFAKKLSVIDMDALSSSKKDFNLAVLYLFYKVMNRAKLENKPFYIFIDEAKSVIENPIMLAKIKDTLAQARKLNGVLTLAFQDINQLDGVEGAKSIIENAAQVILYPTNNFEKLESYGILLSPIEKSFLNKTPLNARQVLVKNLLTQSSVFLEINLEKLNSTSKKFLRAYNSSASSVFELETLKKDNPKDYKEIYLTKE”, “failed”.
As to “MLEKLLSAIKQKVSNYFLGVLPKSYSMSEENNILGLYDEHFLLTKNENLVGILRLEGVSYTHLSTEQLQDLFTERQMALDSLEKVVARLVVKRRKIDHQQNIQSDSQYLQAILNQFENKEVYENQYFLVLESTHSLHGVLEHKKKSLMHANRENFKDILSYKAHFLQETLKSLEIQLKNYAPKLLSSKEVLNFYAEYINGFDLPLKPLVGGYLSDSYIASSITFEKDYFIQESFNQKTYNRLIGIKAYESERITSIAIGALLYQETPLDIIFSIEPMSVHKTLSFLKERAKFSMSNLVKNELLEYQELVKTKRLSMQKFALNILIKAPSLENLDAQTSLVLGLLFKENLVGVIETFGLKGGYFSFFPERIHLNHRLRFLTSKALACLMVFERQNLGFKANSWGNSPLSVFKNLDYSPFLFNFHNQEVSHKNAKEIARVNGHTLIIGATGSGKSTLISFLMMSALKYQNMRLLAFDRMQGLYSFTKFFKGHYHDGQSFSINPFCLEPNLQNLEFLQSFFLSMFDLAPSRDKEALEDMNAISSAIKSLYETLYPKAFSLLDFKETLKRTSSNQLGLSLEPYLNNPLFNALNDAFNSNAFLNVINLDTITQNPKDLGLLAYYLFYKILEESRKNDSGFLVFLDEFKSYVENDLLNTKINALITQARKANGVVVLALQDIYQLSGVKNAHSFLSNMGTLILYPQKNARELKHNFNVPLSETEISFLENTPLYARQVLVKNLGNGSSNMIDVSLESLGRYLKIFNSDSSHVSKVKALQKDYPTEWREKLLRSLEHHHHHH”, the protein production entry is “failed”.
For the sequence “MLEKNKPENHATDKHGLLSAPIPETLRKMTVPMTMGMIAILMFNLVDTFFISLLGTHALAAISYTFPVTFAVNCITMGIGMGLSTNIGRLLGQGHAPQAARFTTHGLLLAVLLVAIASSIGFATIAPLFRFLGATDDLIPLIEQYMQVWYLTIPLLVIPMAGNSAIRATGDTKTPAKIMMLAGLINGMLDPLLIFGYGPFPELGIQGAAIASAFSWLGALCGSFYVLVKREKLLAQPQWASLKQDWQQTLKIGTPAALSNAMNPLSGAILMMLLSSHGTAAVAAYGAAQRIESILILVLMSLTSALTPFMAQNLGAKNPQRAFSGLFLSMRFAVVFQGFIFLMMVPLSIPLAALFSQEETVKNLLWHYLLVVPFSYGFQGIVMMLVSGLNAMHKPLRAFQWSFMRLFVFTLPAAWVGSQVYSIEGLFIGIALGNTLGGLLGYMFALRERKLTLIEQNSAS”, the protein production result is listed as “failed”.
